Results published in the DeepSol protein solubility set.

Test: soluble on expression in E. coli; label from the status in PepcDB or PDB records

Row | Sequence | soluble on expression in E. coli
1 | MGMSATMGDSASIPGVFFADFGPAPPEITPEGYHEVELNKTKWVLPQWYNSLKPLGEGAYGVVCTAEYEPTGDRVAIKKFFRPFQSTIHAKRTYRELKLLRTLQHDNVLEMIDVFTPDPDASSLNNVYFVSVLMGSDLQNIMKIQRLTDEQIQLLIYQVLRGLKYIHSAGIIHRDLKPSNIAVNERCEVKVFLSFSQLSFLILSFFKILDFGLARAQDAEMTGYVATRWYRAPEIMLNWMHYTQTVDVWSVGCILAELVSGRPLFPGDDHIDQLTKIMSVVGTPKEEFWSKIQSEEARNYIKNRSPIIRQDFVTLFPMASPYALELLEMMLILDPDRRISVSSALRHDYLREYSVPNDEPVAMDTVINSIVTIDPAEERATTLSDWRELIWNEIRLFQNSARRLSFVSCTDTEEEPMKI | not soluble
2 | MGMSSLRDLGLSEYEARAYRSLLETGPTTAKELSRASDVPMGRIYDVLNSLETYNLVRSQTASRPKKYVAVEPDTALDRLLEDKKRELQEKVGQYEEIVDDLSSQLESADPVEEPFWTAAVGPDNSLDLLLERLAAADDEIIMVGSAPARQVDILSGTERIVDELEAALERGVEVSLLVRPDLFESLPEEANREYYERLFHYDNYSARASPNIRTTFELLDGVEVCIEVPHPLGREETFGVIDMKDSDFTADISQAFEEHWAEAKPVGPP | not soluble
3 | MGMVSDAVIRHQGKVIAVYPDGILPLEPPRQNASQLYLTSGMDERKRKLIDLGEAFVILAGGFGTMEESFQLLTEMSINQTAVRPVIFVGRKFYQPLFDLLRLQLKEGMISKEVIDAISLVDTAEETIELLGDLKLEQVVLEHHHHHH | not soluble
4 | MGNIGSPPKFDEYPNGNEEPRRVLRLNVYFDNPVQNKDGAYDDRGGFWAPVDWWHRDAERWATLFAKGMRVAVRGHLERDDWTDGDGEPHTTYKVDARSVGILPYRLDAVHLSPLEHHHHHH | not soluble
5 | MGNIVKPFKQQPSSFAYQPLTVPLIPEVEAQSENLRVFSFKEWMKATKKSRQDRVVIRDDHYIRSFYKGYIDNTTFAPSRTKTGTPVSVVEYLHGSSQALQEWVDIFGVILLELLVGSQDRSTALKNQSSDWTGSFLPDNYKIGEIIDPRIGSDYPVDAATKIGLGPNVRCPYIGHRDMDKC | soluble
6 | MGNKLFVLDLGEIRVDENFIIANSTFVTPQKPTVSSRLIDIPVSAYLIQCTDATVLYDTGCHPECMGTNGRWPAQSQLNAPYIGASECNLPERLRQLGLSPDDISTVVLSHLHNDHAGCVEYFGKSRLIAHEDEFATAVRYFATGDHSSPYIVKDIEAWLATPRNWDLVGRDERERELAPGVNLLNFGTGHASGMLGLAVRLEKQPGFLLVSDACYTATNYGPPARRAGVLHDTIGYDRTVSHIRQYAESRSLTVLFGHDREQFASLIKSTDGFYE | soluble
7 | MGNMWGKNRGAVERFQTRREALFDDFKSRSAPASLVNNPRIVKGNETAEQIETTFNEILKLDLIALKSALQTDKYNAYTVLCAFVWRAIDVNSEINCITEVIREAFNTAEALDDNYAQTGEKGQLFGLPFSVKSNFYMENYDVTVGLAKLLEQPKTTTCPMVQFLSDQGAVPFCLTNVPQGLLSYVSSNPIYGTTKNPWDFSRTPGGSSGGEAALLAAGGAAFGIGSDLAGSLRIPAAFCGLVTLKPTQDRLCVTDTHGGLPGRGRLGLSFGFYTRSVKEQEFLLGLIVGRSEYLELCPMSSPAKLEKHIEKDQKLVIGWFVDDGFNPVVPSNRRAVEETVKSLQAKGHQVVELKLADVSEEFPPFAVADMLFRNVMPDNGAYMSEMYAGEQYDEHMKLFIRLVCLKQNFLVSFLLRYGVMPFAKLALSKRLACIGSAYNSDLAACRQNQENTDSYKLQWIRYWKSKKIDALICPSFITPAQPFEYPAQLSNGAFITGLFNMLDVPAGVVPVSPVNQKDVDQLIDGFSTEGDLLLKKQREAARGTTGLPNAVQVVTLPNCEEMCLRVMRLVEESAEGVQRLQWRVGASAAPIDVENTPAGVVSSLEHFERVNLLH | not soluble
8 | MGNTDKLMNQIFELKFTSKSLQRQARKCEKEERSEKLKVKKAIEKGNMDGARIYAENAIRKRSEQMNYLRLSSRLDAVVARLDTQAKMATITKSMTNIVKSLESSLTTGNLQKMSETMDSFEKQFVNMEVQAEFMDNAMAGSTSLSTPEGEVNSLMQQVADDYGLEVSVGLPQPAGHAIPTKTEEKVEEDDLTRRLAELKARG | not soluble
9 | MGPNHPCGYLPGRDARFTYVSPAYPLSPQSYRGLLEEGFRRSGNWVYRPCCIGCSACLPVRLPVHDFRLTRSHRRVIKRNADIDIRVSVARFDERQFQLYVRYLAARHPLEHHHHHH | not soluble
10 | MGQNQFRWSNEQLREHVEVIDGTRSPHIVLRNATYLNSYIREWMQANIWIYDDRIIYVGEKLPEQLHECEVIDCDGKYVVPSYIEPHAHPYQLYNPETLANHAMQFGTTTFINDNLTLFFTLKRELEHHHHHH | not soluble
11 | MGRFHRHDDGTVHSHDHDHHGHSHDVGDHSGYETGRERIEVLEDIFHENDHCAADNKELFDAHQVRCINIMSSPGAGKTTVLQHVLRAAEGKVRVGVVEGDIETSLDADRLTGFGAQISLLNTGNGFGGECHLDAPMVSRALRGLDLDTLDVVLIENVGNLVCPAEFEVGEHSKAMIYSVTEGEDKPLKYPVMFRSVDAVVINKIDLLPYLDFDMELFMKNLRQVNPDAKVFEVSAKTGEGLDGWIEWLVGAK | not soluble
12 | MGSDKIHHHHHHAACSNDEKITESTPKTVALTVKLPEFGGASSRAIDPETTTGNKVTINGPVKIIARVSQGGAITNTISENITAGSMSTITVSGAAQWIEVEANGDNSTETDNVNTRQGSATSSKVRLFGGATINPGSGGNATCTPTISPDMARVEVKGSLGTSWTHLTDLKVKGIYINNIKLTRGVSSLTRIASAAWNTEYAPSGKFEKMFNDNLGGVGAGAGVAQITPGQADGYNFFPQKDNTLPLPTTKEDVMKNSIHIIMEVEFTRADGVPVVGPQWLNVVALKDNTATNYITDFEAGNVYSIDLADIKDIMDVPVPPVTPNPDPETVSVDLTVSIGQWTVVQVKPEV | not soluble
13 | MGSDKIHHHHHHAADPVVVPANMEPLTIEGNRFVTLCIMIRTTPWEVSRDVKLHPRDEVDWHTLEGVRALREAFATNNPNGRLTWGFTMNALEDGRKNYREIRDYVVECQKKYGDEVTYFPGYFPAMYLPRERVNREMSEAIEIISKMVGNGYRPQSIMGGFLSADNLRYLAEKENIHVAHAVIWSQHNIDGGGADGSPSYPFYPSTEHFCKPAQGKSDFIDCVNLDGWTMDFICARRSGQTGHGIDGYNSRRGVGPIETYKGWGLDLGHREVMHTEAIHFDKGLELNGFGWVANIWEAQMVHEFGKDLICDAMKMWVTGTKERWPDTHFVTFGEFGELWRKQYKSNDDWNYRFVERGSGLGDSYNNLEIKWFMNKEFRLALLRDWHTKNSPAYVIDFTRYDLQAHEPADPSPEKPAKDWSLINKINQKALRPQDKPVLIDKLEKEDQDLIRKYYPELLK | not soluble
14 | MGSDKIHHHHHHAAIPDTGNWISHHLLTSDGLTVLAAGPAFAPLKWNIGQNNMGGYKGRLLFIPYDAPSTVPMIPVKPTTNEDLITASGSFTFPSGGTYTQPIYLYSTKGKVGYKAEIQGETDGKSFKQTLEFFFPGNTPGMHAFSTLVKNTPGYFVFEDSDGQQFLMGKPGMYADVSPSFDGGKLAADQRGTAYTATCDANESAVVLGTPIDMEVIAGLKPAPSPGG | not soluble
15 | MGSDKIHHHHHHAASVTPSSALLKKSNSYYRSHARALGKKYKLAFDAQSALKKNGKAVIYVNTKDKTLNQSVKLAMAYWNKKLGKTEFTQGSKKNHTLTFGVSTAAASKSDQSDAWWTPMTKKLDVRWSYYTAEKQNIGISMTNQLNKAFYKQYADTIETKAKANLAAKGITTSDKDYLSPFNREASNVETSLPAYTTLKKDVCLVKSTLANEGRKYEYASTIAHEMGHVMGLNHSPNKQDLMYFESGNNNVYSFKKVKAGLSKYNPITTTDKNRAKLALKIYVAAH | not soluble
16 | MGSDKIHHHHHHADMDGSQNKETENKEIKIILEAETSSQNIFAPIVFYQSFDFGKDAPCLSEVYDSIVWKSSHSPNSFKVFSHSNYARYVETTFFKWAHVYYSPGTYKTYLLGYKNNEIIYSSDTISIDITNKKDFLAFNWKDVTDSDFTTGYANNLDGYYLSTQTHIHQGVPSVMLYAKNEKYEKGGSMKSKQILYNYINSFFSLPNYTATSDESLRKEFSTIFSFQEENAIPLNIWLTPKAKIVLLRKDFKGLESEYKIYAEPGDLI | not soluble
17 | MGSDKIHHHHHHADTTDNTTTSSSTSANSGSTVQTKALSKAYVVYGAGLASEDKDTVASALGVKSNYTALTATGSDYATYLNAAGTTDASMISSVTLAPADPGTGVKVNIAKYNGSNNITEVTSQQYAMVATMAGVKDVIITVTADKSVSGESALTGVYKALAADGLTLNSQNTQAANGVLDATQPAIDSNSSDKKYPGKLMSAVGSVSSDLAKQRQNGNELATKADIEEMLQKALAKQGIANQTSSTQITNIAIALSQVQKAPVSTSKTYIKNVTNVADSLANSIGDKMASVKDFANSADAKQAENFIVQIWHNVVNFFKGLIGG | not soluble
18 | MGSDKIHHHHHHAEVADSIEGGNGEAPLEVRAVTGAEVDTRAPAAVEMTEGTLGIFRLAEADYTALDNIRYDRVPGGNWHPVSTVIYVGGTYARLCAYAPYNSVEFKNSSLKTEAGLTMQTYAVEKDMRFAVSGGDEVWKKTPTANFELKRAYARLVLSVVRDATYPNTCKITQAKIKASTGNIITANTVDISTGTEGSGTQTPQYTHTVTTGLKDGFEIGVTDDTSFDWLLPQQTFSGGVVLTLTVDGMDYSVTIPVDKLSTFVRGTKYTVSLVVKGGKLTLMSDKILIDRDWTEVQTGTGGSGSDYDTSFN | not soluble
19 | MGSDKIHHHHHHAKPVTSETMAAKTVGLQIYSLGKELYADVPGGLKKIKQMGYTNLELAGYKEGKIGGVDMMEFKKMVDDAGLKITSSHVNPPVREYTKANRSQISEYWKKTADDHAKLGVKYLIQPGQPSTRSTEETAFVCEIFNEAGKIVKAAGIPFGYHNHEMEFAKVNPGSTEAKLGRRVKGDCIYELFLKNTDPSLVFFEMDVYWAVMGQQDPIEWLKKYPNRIKVLHIKDRAILGESGMMNFENIFRQAYANGIKDYFVELEGMPDGRSQFEGVKGCVDYLLKAPFVK | not soluble
20 | MGSDKIHHHHHHASEEDPWESINRPIFTFNDTLDTYALKPLAQGYQKVTPNFVQDGVHNFFNNLGDVKNLANNLLQAKFHNAGVDTSRLLFNSTFGLAGLIDVATPMGLQRNDEDFGQTLGYWGVGSGPYVMLPFLGPSTLRDAPAKIPDIYVSPYHYMDDVRARNVMFGINTVDTRANLLKSEKLISGDKYIFIRNAYLQNREFKVKDGEVEDDF | not soluble
21 | MGSDKIHHHHHHATETEKDQRKFDYFFYEGLNLKNAGKFDAAYDAFNHCLEIDSTAAPVLYELSSFYVQLNRPEKAVEMLKRAVANSKDNFTYKMALASITRNLGMYGEAAEEYEELVRDYPEKEELNYYLADALTQAGEIGKAIEAYDALESVMGMNEAISMQKYKLYVQLEKPEEAFKEIEKLAAKYPMEARYQIVLGDLHLENGEMDKALACYQKANEIDPTDPYYIVSMANYYEAKGDKEAAEQQIRSALVNEKLDVETKVNILSRYILKLQQTKQGTENANHLFQTLLEQHPEDIDLKLMYGGLLMAQGKTEEAKFQFQLVTEMEPGNAGAWQQLLNLALKGEDIPEVIRICTACMELFPESPEYYFYLGIAYYQQQKYQEALNTYYAGLNIIPKENLPLKSDFYGQIGDIYYQMGQLDQAYKAYDEALKYNDKNVVVLNNYSYFLSLEKKDLKKAERMSAQCIKLEPDNATYLDTYAWIFFVQGNYTLAKIYIESALEKDKTKSAELVDHYGDILFMNGDKEKAVEQWKKAKEMGKDSEILNRKIAEQQYIEDENAK | not soluble
